Binding signal data for 1 substance are collected here from US20030148283.

The target in the series is T1, Tma endonuclease V H116A H116A (Thermotoga maritima) (UniProt Q9X2H9).
T1 sequence: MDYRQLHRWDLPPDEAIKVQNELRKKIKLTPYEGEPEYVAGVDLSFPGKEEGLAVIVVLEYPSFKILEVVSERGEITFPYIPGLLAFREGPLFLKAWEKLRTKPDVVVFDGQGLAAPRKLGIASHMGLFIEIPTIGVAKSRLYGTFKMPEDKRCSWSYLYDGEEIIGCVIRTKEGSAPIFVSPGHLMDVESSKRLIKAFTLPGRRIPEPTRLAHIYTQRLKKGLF
The series can be described thus: EMSA. Particulars: deoxyinosine; MgCl2; bound about half as tightly as wt. In general terms: Mobility shift assays separate free from complexed probe on a gel.

Take nicked I/A product: the binding signal was 0.5 fold of wt.
